# Data from patent publication US9850293B2, “Targeting trastuzumab-resistant HER2+ breast cancer with a HER3-targeting nanoparticle” (priority 2014, dated 2017).
# Tests used:
# SKOV3 = test: Cytotoxicity on cell lines (HerDox dose curves); assay type: cell-based, human; conditions: concentration yielding 50% reduction in cell survival, mean ± SD
# MDA-MB-231 (HER2−) = test: Targeted toxicity, cell survival by MTT assay; assay type: cell-based, human; conditions: 0.5 μM with respect to Dox; HerPBK10 0.1 μM; day 3
# Experimental: FIG. 7 illustrates targeted toxicity. […] Cell titer was determined by metabolic (i.e. MTT) assay. FIG. 7 upper panel illustrates the effect of HerDox on MDA-MB-231 (HER2−) and MDA-MB-435 (HER2+) cell survival. Relative surviving cell numbers are represented as a % of corresponding untreated cells. […] Relative survival (as % of untreated cells) is shown for Day 3 of treatment.
# N=3. […] Bar, about 4 μm. […] (E) compares HerDox and Dox on off-target tissue. […] Green fluorescence in nuclei indicates apoptosis (positive TUNEL stain).
# By three days, HerDox reduced HER2+ cell numbers by over 75% whereas HER2− cell survival was unaffected (FIG. 7). […] These findings emphasize the importance of targeting by showing that the untargeted drug affects nontarget (i.e. HER2−) cells. […] To test receptor targeting, the inventors used free heregulin ligand (Her or eHRG) as a competitive inhibitor. […] As a final in vitro challenge, the inventors tested whether HerDox induces toxicity specifically to HER2+ cells in a mixed culture of HER2+ and HER2− breast cancer cells. To do this, the inventors produced a HER2− cell line tagged with green fluorescent protein (GFP) for cell identification in the mixed culture (FIG. 9-A). […] Altogether, these findings indicate that HerDox has the capacity to preferentially target toxicity to HER2+ cells. […] In serum-containing media, no such loss from HerDox is detectable. […] Co-migration of HerPBK10 bands further verified that the conjugates remained intact in the cell media.
# [1] = Stability in mouse whole blood; assay type: in vitro ADME; conditions: 0.12 mg/mL Dox, 37° C., up to one hour
# Experimental: FIG. 13 illustrates stability in mouse whole blood. […] As 0.5 mM EDTA was used as an anticoagulant, HerDox in EDTA alone (− blood) was processed in parallel. Bars represent fluorescence of retained (retentates) or released (filtrates) Dox as a percentage of the total fluorescence of each sample. Scale of Y-axis is adjusted to show presence of filtrate samples. N=3 per treatment.
# (§1) (A) depicts a graphic of HerDox formed by non-covalent, serum-stable self-assembly, showing HerPBK10 with functional domains delineated, and electrophilic binding with Dox-intercalated ds-oligo. (B) depicts a CryoEM image of HerDox particles. (C) is a HPLC chromatogram of HerDox showing elution profile of Dox absorbance. […] (D) illustrates the protection of ds-oligo from serum nuclease digestion by HerPBK10. The ds-oligo was incubated for 20 min in 100% mouse serum (Abcam, Cambridge, Mass., USA) before PAGE and EtBr staining to visualize the DNA. (E) illustrates that HerDox remains stable in blood. […] N=3. *, p<0.05, compared to respective retentates.
# As the anticoagulant, 0.5 mM EDTA, was present in the blood collection, parallel samples were incubated at 37° C. in EDTA alone. Samples representing input HerDox (before incubation in blood) were incubated at 37° C. in HEPES-buffered saline.
# MDA-MB-435 cells = test: Intracellular translocation of HerDox and Dox (microscopy); assay type: cell-based, human
# Experimental: Live (unfixed) cells were imaged by brightfield and fluorescence microscopy.
# Live (unfixed) cells were imaged by DIC and confocal fluorescence microscopy.
# FIG. 15 illustrates HerDox trafficking in breast cancer cells. Cells incubated with HerDox at 37° C. were fixed at the indicated time points and processed for immunofluorescence using an antibody against HerPBK10. Images were captured using confocal microscopy under fluorescence and brightfield. n, nucleus; Bar, ˜8 microns.
# [2] = Particle size (cryoEM, dynamic light scattering); assay type: physicochemical; conditions: round particles
# Experimental: as §1
# FIG. 33 illustrates the formation of certain corroles. […] Table summarizes salient features of the three corroles.
# In some embodiments, the corrole comprises a metallic chemical element. In some of these embodiments, the metal is a transition metal. In some embodiments, the metal is Iron (Fe), Manganese (Mn), or Gallium (Ga). In other embodiments, the corrole is non-metallated. Metallated and non-metallated corroles bind in protein pockets with negligible dissociation. […] Corrole assembly with HerPBK10 yields 25-35 corroles/protein, resulting in 10-20 nm round particles (FIG. 33-B) that withstand high-speed ultrafiltration.
# [3] = test system: parental and resistant cell lines (JIMT-1, BT-474, SKBR3); test: HerDox −/+ HER3 blocking peptide, cell survival; assay type: cell-based, human; conditions: equimolar HER3:HerPBK10, 48 hours
# Experimental: (A)_-illustrates that resistance enhances HerDox toxicity. […] N=3. *, p<0.05 compared to parental. (B)_illustrates that resistance enhances HerDox toxicity. […] N=3. (C) illustrates contribution of HER3 to targeted toxicity. […] Treatments were compared to mock (saline)-treatment. […] N=3. *, p<0.05 compared to parental. […] N=3.
# The contribution of HER3 to targeted toxicity was evaluated by assessing whether pre-adsorbing HerDox with a peptide comprising the ligand-binding domain of HER3 blocked cytotoxicity. […] In contrast, HerDox yielded dose-dependent cell death and eliminated up to 90% of the cells (FIG. 27-E).
molecule,measurement,setting,value
"HerDox: non-covalent complex of HerPBK10, double-stranded oligonucleotide and intercalated Dox (Unit A+Unit B+Unit C) (conjugate, left off: small tags and cut ends) SHLVKCAEKEKTFCVNGGECFMVKDLSNPSRYLCKCQPGFTGARCTENVPMKVQNQEKAEELYQKMRRAAMYEEGPPPSYESVVSAAPVAAALGSPFDAPLDPPFVPPRYLRPTGGRNSIRYSELAPLFDTTRVYLVDNKSTDVASLNYQNDHSNFLTTVIQNNDYSPGEASTQTINLDDRSHWGGDLKTILHTNMPNVNEFMFTNKFKARVMVSRLPTKDNQVELKYEWVEFTLPEGNYSETMTIDLMNNAIVEHYLKVGRQNGVLESDIGVKFDTRNFRLGFDPVTGLVMPGVYTNEAFHPDIILLPGCGVDFTHSRLSNLLGIRKRQPFQEGFRITYDDLEGGNIPALLDVDAYQASLKDDTEQGGGGAGGSNSSGSGAEENSNAAAAAMQPVEDMNDHAIRGDTFATRAEEKRAEAEAAAEAAAPAAQPEVEKPQKKPVIKPLTEDSKKRSYNLISNDSTFTQYRSWYLAYNYGDPQTGIRSWTLLCTPDVTCGSEQVYWSLPDMMQDPVTFRSTRQISNFPVVGAELLPVHSKSFYNDQAVYSQLIRQFTSLTHVFNRFPENQILARPPAPTITTVSENVPALTDHGTLPLRNSIGGVQRVTITDARRRTCPYVYKALGIVSPRVLSSRTFKKKKKKKKKK",EC50,SKOV3,0.18 ± 0.03 µM
same,effect on HER2− cell survival,MDA-MB-231 (HER2−),unaffected
same,loss of Dox from conjugate in whole blood,[1],no detectable loss of Dox from the conjugate
same,intracellular location of Dox fluorescence,"MDA-MB-435 cells; 0 min of uptake, 0.5 μM",mostly at the cell periphery
same,localization of HerPBK10 and Dox (immunofluorescence),MDA-MB-435 cells; 30 and 60 min,increasing levels of Dox accumulate in the nucleus while the majority of HerPBK10 remains in the cytoplasm
same,colocalization of HerPBK10 and Dox (immunofluorescence),MDA-MB-435 cells; 15 min of uptake,HerPBK10 mostly colocalizes with Dox
same,intracellular location of Dox fluorescence,MDA-MB-435 cells; 60 min,accumulated in the nucleus
same,intranuclear pattern of Dox in live cells,"MDA-MB-435 cells; confocal, live cells",preferentially accumulates in nucleolar structures
same,particle diameter,[2],10-50 nm
same,cell death after pre-adsorbing with HER3 peptide,[3],inhibited by the HER3 peptide
